Data taken from US20180111972A1 (Stanford University, published 2018).
Where a chain is given by its changes, count along the chain named. Names may count otherwise.

Columns and labels:
[1] = target: T1, VEGFR2-His (residues 1-764 of VEGFR2, Ig-like domains 1-7, with hexahistidine tag) (human, UniProt P35968 20-764); test: yeast surface display titration, flow cytometry
T1 construct: range 1-764; Monomeric form, expressed in FreeStyle 293-F cells; also called VEGFR-His
Method: (§1) Cells were incubated in large enough volumes to avoid ligand depletion and appropriate time to reach equilibrium. During the last hour of incubation, yeast were incubated with 1:250 dilution of chicken anti-c-Myc (Invitrogen) in PBSA. […] Yeast were washed, pelleted, and resuspended in PBSA immediately before analysis by flow cytometry using BD FACSCalibur or BD Accuri C6. Flow cytometry data were analyzed using FlowJo (v7.6.1 and v10, Treestar) or BD Accuri C6 software. Statistical analysis was performed using GraphPad Prism 6.

[2] = target: T2, soluble VEGFR2 (Fc or His format not stated for the experiment) (human, UniProt P35968 20-764); test: yeast surface display titration; table under the panel 'VEGFR binding', Fc or His form not given
T2 construct: extracellular domain

[3] = target: T3, VEGFR2-Fc (R&D Systems) (human, UniProt P35968 20-764); test: yeast surface display, flow cytometry titration of VEGFR2-Fc
T3 construct: extracellular domain; Bought reagent; also called VEGFR-Fc; not shown: Fc part, detected with anti-human-IgG (Fc specific)
Method: as §1

[4] = target: T4, PDGFRβ-His (residues 1-314 of PDGFR-β with C-terminal hexahistidine tag) (human, UniProt P09619 33-314); test: yeast surface display titration, flow cytometry
T4 construct: range 1-314; Monovalent form, expressed in FreeStyle 293-F cells; also called PDGRβ-His; PDGFR-His
Method: as §1

[5] = target: T1, VEGFR2-His (residues 1-764 of VEGFR2, …); test: yeast surface display titration, flow cytometry; remark: listed apart in the source
Method: as §1

[6] = target: T1, VEGFR2-His (residues 1-764 of VEGFR2, …); test: yeast surface display, flow cytometry equilibrium titration of VEGFR2-His, normalized fluorescence
Method: as §1

[7] = target: T4, PDGFRβ-His (residues 1-314 of PDGFR-β …); test: yeast surface display, flow cytometry equilibrium titration of PDGFRβ-His (panel 'PDGFR-His'), normalized fluorescence
Method: as §1

[8] = target: T2, soluble VEGFR2 (Fc or His format not …); test: yeast surface display, flow cytometry dot plot: soluble receptor bound (FL1) against surface expression (FL2); receptor concentration not given
[9] = target: T4, PDGFRβ-His (residues 1-314 of PDGFR-β …); test: KinExA Kinetics Injection
Method: (§2) Additionally, the kinetic parameter kₒₙ can be determined by using a “kinetics injection” experiment. A constant concentration of PDGF/VEGF ligand is injected with an equal volume of differing concentrations of PDGRβ-His or VEGFR2-His. The two solutions are allowed to mix briefly (several seconds) in the time required for the instrument to deliver the mixture to the detection bead column. The pre-equilibrium concentrations of free ligand is fit to the standard bimolecular rate equation to obtain kₒₙ.
(§3) Kinetic Exclusion Assay (KinExA). All experiments were performed on a KinExA 3200 instrument with siliconized flow cell (Sapidyne Instruments Inc). […] 30 μg of receptor was incubated in 1 ml of 50 mM sodium bicarbonate, 0.5 M sodium citrate buffer, pH 8.3, for 2 hr at room temperature with rocking. Beads were allowed to settle by gravity and liquid removed. Beads were blocked by incubating in 1 ml of 10 mg/ml BSA in 1 M Tris buffer, pH 8.0, for 1 hr at room temperature with rocking, and stored in blocking buffer at 4° C. for up to one week until use. Running buffer contained PBS with 10 mM imidazole and 0.02% sodium azide. Samples were prepared in running buffer with 1 mg/ml BSA. Binding reactions were prepared with a fixed concentration of PDGF/VEGF ligands and dilution series of PDGFR or VEGFR. Captured PDGF/VEGF ligands were detected using a Dylight 649-conjugated anti-FLAG antibody (Rockland) at 1:1000 dilution in sample buffer. Kinetic experiments were performed with the “Kinetics Injection” method defined in the KinExA software. Data were analyzed with KinExA Pro Software. The Kd was determined from a global fit of two concentration curves using the “n-curve analysis” tool and the titrant concentrations as reference. […] The kₒₙ was calculated as a fit of the pre-equilibrium free ligand concentrations to the bimolecular binding equation using the “Kinetics Injection” tool.

[10] = target: T1, VEGFR2-His (residues 1-764 of VEGFR2, …); test: KinExA Kinetics Injection
Method: as §2, §3

[11] = target: T4, PDGFRβ-His (residues 1-314 of PDGFR-β …); test: KinExA, calculated from Kd and kon
Method: (§4) By performing two experiments with fixed ligand concentrations above and below the Kd, and fitting both sets of data with a nonlinear regression analysis, a more accurate measurement for the affinity can be obtained.
as §2, §3

[12] = target: T1, VEGFR2-His (residues 1-764 of VEGFR2, …); test: KinExA, calculated from Kd and kon
Method: as §4, §2, §3

[13] = target: T4, PDGFRβ-His (residues 1-314 of PDGFR-β …); test: KinExA, equilibrium titration in solution, n-curve analysis
Method: (§5) For KinExA measurements, a constant amount of PDGF/VEGF ligand is titrated with differing concentrations of PDGRβ-His or VEGFR2-His. The solutions are incubated for an appropriate amount of time to allow the ligand-receptor binding reaction to reach equilibrium. The solution is then briefly exposed to a solid support containing immobilized PDGFR or VEGFR, which captures unbound ligand. The amount of ligand bound to the solid support is then detected using a fluorescently-labeled antibody. […] For each binding interaction measured, curves for two concentrations of the constant ligand are performed. By performing two experiments with fixed ligand concentrations above and below the Kd, and fitting both sets of data with a nonlinear regression analysis, a more accurate measurement for the affinity can be obtained.
(§6) Kinetic Exclusion Assay (KinExA). All experiments were performed on a KinExA 3200 instrument with siliconized flow cell (Sapidyne Instruments Inc). […] 30 μg of receptor was incubated in 1 ml of 50 mM sodium bicarbonate, 0.5 M sodium citrate buffer, pH 8.3, for 2 hr at room temperature with rocking. Beads were allowed to settle by gravity and liquid removed. Beads were blocked by incubating in 1 ml of 10 mg/ml BSA in 1 M Tris buffer, pH 8.0, for 1 hr at room temperature with rocking, and stored in blocking buffer at 4° C. for up to one week until use. Running buffer contained PBS with 10 mM imidazole and 0.02% sodium azide. Samples were prepared in running buffer with 1 mg/ml BSA. Binding reactions were prepared with a fixed concentration of PDGF/VEGF ligands and dilution series of PDGFR or VEGFR. Captured PDGF/VEGF ligands were detected using a Dylight 649-conjugated anti-FLAG antibody (Rockland) at 1:1000 dilution in sample buffer. Kinetic experiments were performed with the “Kinetics Injection” method defined in the KinExA software. Data were analyzed with KinExA Pro Software.

[14] = target: T1, VEGFR2-His (residues 1-764 of VEGFR2, …); test: as above
Method: as §5, §6

[15] = target: T5, human VEGFR on human umbilical vein endothelial cells (HUVECs) (human, UniProt P35968 20-1356); test: flow cytometry on HUVECs, soluble ligand titrated 3 h at 4 C, anti-FLAG-PE
T5 construct: The phosphorylation blots on these cells detect VEGFR2
Method: (§7) To test binding to VEGFR, human umbilical vein endothelial cells (HUVECs) and murine angiosarcoma endothelial cells (SVR) were used.
(§8) Cell-binding assay. Varying concentrations of scPDGF, scVEGF, and PDGF/VEGF ligands were incubated with 25,000 PDGFR- or VEGFR-expressing cells in binding buffer (20 mM Tris pH 7.5 with 1 mM MgCl₂, 1 mM MnCl₂, 2 mM CaCl₂, 100 mM NaCl, and 1 mg/ml BSA) for 5 hr (BJ-5ta, NIH/3T3) or 3 hr (HUVEC, SVR) at 4° C. Cells were washed and pelleted, then incubated with 1:100 R-PE-conjugated anti-FLAG antibody (Prozyme) for 15 min on ice. Cells were washed, pelleted, and resuspended in binding buffer immediately before analysis by flow cytometry using BD Accuri C6. Flow cytometry data were analyzed using BD Accuri C6 software, and statistical analysis was performed using GraphPad Prism 6.

[16] = target: T5, human VEGFR on human umbilical vein …; test: flow cytometry titration of the soluble FLAG-tagged protein on HUVECs, anti-FLAG detection
Method: as §7, §8

T1 sequence (P35968 other isoform, or with tags, fused parts or gaps limits assumed, form in doubt): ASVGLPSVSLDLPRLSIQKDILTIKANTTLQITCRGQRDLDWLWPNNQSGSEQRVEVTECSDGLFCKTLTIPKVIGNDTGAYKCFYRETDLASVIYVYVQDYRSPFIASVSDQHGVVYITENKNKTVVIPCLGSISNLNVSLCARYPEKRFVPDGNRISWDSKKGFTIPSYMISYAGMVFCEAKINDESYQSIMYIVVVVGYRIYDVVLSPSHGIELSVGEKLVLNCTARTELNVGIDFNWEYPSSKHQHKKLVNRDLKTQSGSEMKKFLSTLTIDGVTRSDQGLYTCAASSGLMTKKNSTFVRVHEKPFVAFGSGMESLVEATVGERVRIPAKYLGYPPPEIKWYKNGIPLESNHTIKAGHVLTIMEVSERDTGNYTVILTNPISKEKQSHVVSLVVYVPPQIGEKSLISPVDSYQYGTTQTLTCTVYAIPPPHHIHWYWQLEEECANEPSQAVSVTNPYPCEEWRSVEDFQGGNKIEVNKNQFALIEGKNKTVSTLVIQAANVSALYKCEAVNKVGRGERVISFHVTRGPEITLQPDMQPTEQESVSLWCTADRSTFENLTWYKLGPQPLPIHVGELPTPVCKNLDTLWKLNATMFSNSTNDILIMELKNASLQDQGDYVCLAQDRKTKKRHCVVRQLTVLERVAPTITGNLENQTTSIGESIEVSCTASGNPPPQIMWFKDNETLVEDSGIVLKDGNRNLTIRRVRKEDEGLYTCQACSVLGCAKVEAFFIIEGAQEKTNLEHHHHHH
T5 sequence (P35968 20-1356 limits assumed): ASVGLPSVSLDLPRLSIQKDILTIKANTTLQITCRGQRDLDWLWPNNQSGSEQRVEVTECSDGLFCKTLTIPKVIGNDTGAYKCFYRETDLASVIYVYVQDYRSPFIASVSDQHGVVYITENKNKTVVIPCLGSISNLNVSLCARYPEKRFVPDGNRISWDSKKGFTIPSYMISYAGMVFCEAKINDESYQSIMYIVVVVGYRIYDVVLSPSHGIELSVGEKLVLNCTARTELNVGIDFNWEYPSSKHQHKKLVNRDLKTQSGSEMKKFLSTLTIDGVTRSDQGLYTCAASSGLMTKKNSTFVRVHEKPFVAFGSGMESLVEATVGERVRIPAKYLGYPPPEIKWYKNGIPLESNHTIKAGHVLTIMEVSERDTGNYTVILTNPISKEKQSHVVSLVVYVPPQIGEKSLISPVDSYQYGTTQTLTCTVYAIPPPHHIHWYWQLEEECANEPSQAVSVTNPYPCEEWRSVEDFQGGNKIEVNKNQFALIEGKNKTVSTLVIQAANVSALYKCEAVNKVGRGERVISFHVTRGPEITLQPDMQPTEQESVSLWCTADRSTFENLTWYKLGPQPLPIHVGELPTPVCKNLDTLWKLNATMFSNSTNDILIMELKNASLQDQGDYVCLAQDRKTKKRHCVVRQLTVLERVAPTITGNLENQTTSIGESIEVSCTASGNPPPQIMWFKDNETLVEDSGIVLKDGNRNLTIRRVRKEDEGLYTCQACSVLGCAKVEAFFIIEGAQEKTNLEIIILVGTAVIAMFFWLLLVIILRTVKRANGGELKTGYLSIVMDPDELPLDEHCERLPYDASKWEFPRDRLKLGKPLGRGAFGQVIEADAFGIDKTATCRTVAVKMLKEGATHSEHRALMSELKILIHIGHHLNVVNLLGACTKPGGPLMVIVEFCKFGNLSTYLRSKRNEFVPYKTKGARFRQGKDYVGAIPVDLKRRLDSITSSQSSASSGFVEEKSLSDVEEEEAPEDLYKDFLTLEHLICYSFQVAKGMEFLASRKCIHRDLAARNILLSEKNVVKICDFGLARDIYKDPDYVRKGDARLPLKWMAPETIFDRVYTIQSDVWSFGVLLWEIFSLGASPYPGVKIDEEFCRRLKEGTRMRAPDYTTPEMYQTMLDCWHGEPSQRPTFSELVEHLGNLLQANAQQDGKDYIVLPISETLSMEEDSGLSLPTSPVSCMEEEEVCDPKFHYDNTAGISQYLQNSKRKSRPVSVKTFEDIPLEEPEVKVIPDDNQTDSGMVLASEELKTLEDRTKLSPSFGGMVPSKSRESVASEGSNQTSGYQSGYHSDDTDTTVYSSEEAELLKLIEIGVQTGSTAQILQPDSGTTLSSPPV
T2 sequence (P35968 20-764): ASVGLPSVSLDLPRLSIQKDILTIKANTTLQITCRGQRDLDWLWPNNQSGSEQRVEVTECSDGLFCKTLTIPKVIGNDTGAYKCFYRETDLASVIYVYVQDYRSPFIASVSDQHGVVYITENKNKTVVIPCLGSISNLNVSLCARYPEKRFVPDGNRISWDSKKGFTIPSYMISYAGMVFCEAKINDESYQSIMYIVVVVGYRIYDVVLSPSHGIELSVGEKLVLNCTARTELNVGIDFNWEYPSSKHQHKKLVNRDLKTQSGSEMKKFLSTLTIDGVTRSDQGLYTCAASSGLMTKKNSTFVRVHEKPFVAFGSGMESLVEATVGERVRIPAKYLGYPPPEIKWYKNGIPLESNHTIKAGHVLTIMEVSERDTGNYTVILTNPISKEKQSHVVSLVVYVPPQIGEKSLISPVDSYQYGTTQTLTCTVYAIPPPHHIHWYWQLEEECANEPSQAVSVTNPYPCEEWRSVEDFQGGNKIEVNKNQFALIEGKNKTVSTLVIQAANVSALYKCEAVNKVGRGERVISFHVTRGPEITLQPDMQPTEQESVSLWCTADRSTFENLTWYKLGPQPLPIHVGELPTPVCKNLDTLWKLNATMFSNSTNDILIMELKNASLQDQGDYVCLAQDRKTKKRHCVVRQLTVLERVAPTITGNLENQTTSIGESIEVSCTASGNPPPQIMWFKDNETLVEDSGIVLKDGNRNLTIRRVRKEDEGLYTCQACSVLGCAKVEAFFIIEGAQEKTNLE
T3 sequence (P35968 20-764): as above

B1: V4-22 (PV6 with F20L, E28G, Q71R, D160H), yeast-displayed (designed binder)
chain: IAEPAMIAECHPIETLVDILQEYPDEIGYIFKPSCVPLMRCGGCCNNRNVQCRPTEESNITMQIMRIKPHRGQHIGEMSFLQHNKCKCETVAAGSTSGSGKSSEGKGEVVKFMDVYQRSYCKTRTEVFEISRRLIDRTNANFLVWPPCVEVQRCSGCCNHEGLECVPTQVQLRPVQVRKIEIVRKKPIFKKATVTLEDHLACECRPKKD
notes: Variant from the Vshuf library
[1]
  Kd: 1.3 nM
[2]
  Kd: 1.9 nM

B2: V5-5, yeast-displayed variant from the Vshuf library (designed binder)
chain: B1 chain with M6V, D209V
[3]
  binding result: binds

B3: PVGS, yeast-displayed (designed binder)
chain: IAEPAMIAECHPIETLVDILQEYPDEIGYIFKPSCVPLMRCGGCCNNRNVQCRPTEESNITMQIMRIKPHRGQHIGEMSFLQHNKCRCETVAAGGGGSGGGGSGGGGSGGGGSEVVKFMDVYQRSYCKTRTEVFEISRRLIDATNANFLVWPPCVEVQRCSGCCNHEGLECVPTQVQLRPVQVRKIEFVRKKPIFKKATVTLEDHLACECRPKKD
[4]
  Kd: 0.25 nM
[5]
  Kd: 1.1 nM
[6]
  EC50 (read off the curve): ~1 nM
[7]
  EC50 (read off the curve): ~0.3 nM

B4: PV1 PDGF/VEGF hybrid construct, yeast-displayed (designed binder)
chain: IAEPAMIAECKTRETLVDIFQEYPDEIEYIFKPSCVPLMRCSGCCNNRNVQCRPTEESNITMQIMRIKPHQGQHIGEMSFLQHLACKCETVAAGSTSGSGKSSEGKGEVVKFMDVYQRSYCHPITEVFEISRRLIDRTNANFLVWPPCVEVQRCGGCCNDEGLECVPTQVQLRPVQVRKIEIVRKKPIFKKATVTLEDHNKCECRPKKD
[8]
  binding result: binds

B5: PV6 PDGF/VEGF chimera, soluble, N-terminal FLAG and C-terminal hexahistidine tags (designed binder)
chain: DYKDDDDKIAEPAMIAECHPIETLVDIFQEYPDEIEYIFKPSCVPLMRCGGCCNNRNVQCRPTEESNITMQIMRIKPHQGQHIGEMSFLQHNKCKCETVAAGSTSGSGKSSEGKGEVVKFMDVYQRSYCKTRTEVFEISRRLIDRTNANFLVWPPCVEVQRCSGCCNDEGLECVPTQVQLRPVQVRKIEIVRKKPIFKKATVTLEDHLACKCRPKKDHHHHHH
notes: Secreted from S. cerevisiae YVH10 and treated with Endo Hf; also called soluble PV6
[9]
  kon: 2.2e+07 M⁻¹ s⁻¹
[10]
  kon: 240000 M⁻¹ s⁻¹
[11]
  koff: 0.019 s⁻¹
[12]
  koff: 0.0092 s⁻¹
[13]
  Kd: 0.87 nM
[14]
  Kd: 38 nM
[15]
  Kd: 11 nM
[16]
  EC50 (read off the curve): ~10 nM
